We go through nine molecules from patent US20240228596A1 (VIB VZW, published 2024).

In assay [1] the target is T1, SARS-COV-2 Wuhan WT Spike_del18 on VSV-delG pseudotyped particles (SARS-COV-2, UniProt P0DTC2 14-1255). Kind of assay: cell-based or functional assay.
Assay [2] concerns the target T2, RBD of HKU3 sarbecovirus displayed on yeast cells (HKU3 sarbecovirus, UniProt Q3LZX1 322-504). The assay can be described thus: flow cytometry, yeast-displayed RBD (data not shown).
Assay [3] deals with SARS-COV-1 spike protein on VSV-delG pseudotyped particles (SARS-COV-1, UniProt P59594 14-1255). Kind of assay: cell-based or functional assay.
In assay [4] the target is T1, SARS-COV-2 Wuhan WT Spike_del18 on …. Kind of assay: cell-based or functional assay. This is another data set of the same source.
For assay [5] the target is unchanged. Kind of assay: cell-based or functional assay. This is another data set of the same source.
The target of assay [6] is T2, RBD of HKU3 sarbecovirus displayed on …. The assay can be described thus: flow cytometry, yeast-displayed RBD. A general note: Flow cytometry measures light scatter and fluorescence of single cells or particles in a stream.
Assay [7] deals with T3, RBD of SARS-COV-1 displayed on yeast cells (SARS-COV-1, UniProt P59594 318-517). Kind of assay: flow cytometry, yeast-displayed RBD.
For assay [8], the target named is T3, RBD of SARS-COV-1 displayed on yeast …. The assay can be described thus: flow cytometry, yeast-displayed RBD (data not shown).
Assay [9] addresses RBD of Rp3 sarbecovirus displayed on yeast cells (Rp3 sarbecovirus, UniProt Q3I5J5 322-503). The assay is described as above.
A further assay has as its target SARS-COV-2 RBD-SD1 (SARS-COV-2, UniProt P0DTC2 319-591). Kind of assay: periplasmic extract ELISA.

B1: VHH3.42 (VHH)
VHH: QVQLQESGGGLVQPGGSLRLSCAASGSAVSINDMGWYRQPPGKQRELVATITKTGSTNYADSVKGRFTISRDNAKNAVYLEMNSLKPEDTATYYCNAWLPYGMGPDYYGMELWGKGTQVTVSS
For B1, the “neutralization IC50” value in [1] turned out to be 54.8 nM. For the same molecule, the binding result in [2] was “binds”. For the same molecule, in [3], the “IC50 Mean VSV-dG-spike SARS-COV-1” value stood at 0.19 µg/mL. Also, the “IC50 Mean VSV-dG-spike SARS-COV-2” value in [4] is 0.8 µg/mL.

B2: VHH3.117 (VHH)
VHH: QVQLQESGGGLVQPGGSLRLSCAASGKAVSISDMGWYRQPPGKQRELVATITKTGSTNYADSAQGRFTISRDNTKSAVYLEMKSLKPEDTAVYYCNAWLPYGMGPDYYGMELWGKGTQVTVSS
On to B2, for which, in assay [5], the “IC50 ug/ml, pseudoneutralization assay” value came to 0.539 µg/mL. Besides, in assay [1], the “neutralization IC50” value stood at 13.7 nM. Also, the “IC50 Mean VSV-dG-spike SARS-COV-1” value in assay [3] is 0.016 µg/mL. Moreover, the “IC50 Mean VSV-dG-spike SARS-COV-2” value in assay [4] stood at 0.2 µg/mL. Moreover, in [6], the binding result is “binds”.

B3: VHH3.92 (VHH)
VHH: QVQLQESGGGLVQPGGSLRLSCAASGKAVSISDMGWYRQPPGKQRELVATITKTGNTNYADSAQGRFTISRDNAKSAVYLEMASLKPEDTAVYYCNAWLPYGMGPDYYGMELWGKGTQVTVSS
As to B3, in assay [1], the “neutralization IC50” value was determined as 13.6 nM. Besides, the binding result in assay [2] was “binds”. In addition, the “IC50 Mean VSV-dG-spike SARS-COV-2” value in assay [4] amounted to 0.21 µg/mL.

B4: VHH3.89 (VHH)
VHH: QVQLQESGGGLVQPGGSLRLSCAASGFTLDYYAIGWFREVPGKEREGLSRIDSSDGSTYYADSVKGRFTISRDNTKNIVYLQMNNLKPEDTAVYYCATDPIIQGRNWYWTGWGQGTQVTVSS
For B4, the binding result in [7] and in assay [6] was “binds” each time.

B5: VHH3.83 (VHH)
VHH: QVQLQESGGGLVQPGDSLRLSCVLSGGVFTSYAMGWFRQAPGKEREFLAAITFNSDATYYADSVKGRFTISRDNAKNTAYLQMNSLKPNDTAVYSCAAGGNHYNPQYYHDYDKYDHWGQGTQVTVSS
B5: the “IC50 ug/ml, pseudoneutralization assay” value in [5] was 0.262 µg/mL. For the same molecule, the binding result in [8], in assay [9] and in [2] was “binds” throughout.

B6: VHH4.2XAS43 (VHH)
VHH: QVQLQESGGGLVQAGDSLTLSCAASGRTGSNYAMGWFRQAPGKEREFLAAITFNSDATYYADSVKGRFTISRDNAKNTAYLQMNSLKPDDTAVYSCAAGGNHYNPQYYHDYDKYDHWGQGTQVTVSS
Take B6: the binding result with SARS-COV-2 RBD-SD1 was “binds”.

B7: VHH4.2XAS31 (VHH)
VHH: QVQLQESGGGFVQAGGSLRLSCATSGHRFSDYAVAWFRQTPGKEREFLAAITFNSDATYYADSVKGRFTISRDNAKNTAYLQMNSLKPDDTAVYSCAAGGNHYNPQYYHDYDKYDHWGQGTQVTVSS
For the molecule B7, the binding result with SARS-COV-2 RBD-SD1 is given as “binds”.

B8: VHH4.1XAS51 (VHH)
VHH: QVQLQESGGGLVQAGGSLRLSCTASTPTIKNYAMGWFRQAPGKEREFLAAITFNSDATYYADSVKGRFTISRDNAKNTAYLQMNSLKPDDTAVYSCAAGGNHYNPQYYHDYDKYDYWGQGTQVTVSS
In the case of B8, the binding result with SARS-COV-2 RBD-SD1 is given as “binds”.

B9: VHH4.2XAS58 (VHH)
VHH: QVQLQESGGGLVQSGGSLRLSCAGSGFPLEAFSIGWFRQAPGKEREFLAAITFNSDATYYADSVKGRFTISRDNAKNTAYLQMNSLKPDDTAVYSCAAGGNHYNPQYYHDYDKYDHWGQGTQVTVFS
Regarding B9, in the assay with SARS-COV-2 RBD-SD1, the binding result is listed as “binds”.
